One test concerns the target T1, MinD(R3E) (Escherichia coli, UniProt P0AEZ3 1-270, R3E).
T1 sequence (looked up): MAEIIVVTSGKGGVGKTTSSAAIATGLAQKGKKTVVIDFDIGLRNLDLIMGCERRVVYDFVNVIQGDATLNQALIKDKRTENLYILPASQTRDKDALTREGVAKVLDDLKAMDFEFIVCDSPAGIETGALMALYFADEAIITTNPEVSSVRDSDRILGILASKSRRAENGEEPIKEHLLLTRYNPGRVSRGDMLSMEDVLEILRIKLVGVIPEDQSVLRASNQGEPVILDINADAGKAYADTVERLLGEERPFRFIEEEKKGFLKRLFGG
The test is described as follows: 90° light scatter.

The target in another test is ClpX (Escherichia coli, UniProt P0A6H1 1-424). In words: negative-stain transmission electron microscopy.

B1: MinC (natural protein, Escherichia coli, UniProt P18196 1-231, looked up)
chain: MSNTPIELKGSSFTLSVVHLHEAEPKVIHQALEDKIAQAPAFLKHAPVVLNVSALEDPVNWSAMHKAVSATGLRVIGVSGCKDAQLKAEIEKMGLPILTEGKEKAPRPAPTPQAPAQNTTPVTKTRLIDTPVRSGQRIYAPQCDLIVTSHVSAGAELIADGNIHVYGMMRGRALAGASGDRETQIFCTNLMAELVSIAGEYWLSDQIPAEFYGKAARLQLVENALTVQPLN
Consider B1, for which, in the test with MinD(R3E), the binding result is reported as “binds”.

B2: ClpP (enzyme)
chain: not shown
Take B2: the binding result with ClpX is listed as “binds”.

The values above are taken from doi:10.1101/2020.01.09.899195 (bioRxiv, 2020).
